Results as given in the RNAGym collection of RNA variant scans (doi:10.1073/pnas.2313332121).

B1: TPR t1 (parent)
chain: GACCAAUCUGCCCUCAGAGCUCGAGAACAUCUUCGGAUGCAGAGGAGGCAGGCUUCGGUGGCGCGAUAGCGCCAACGUCCUCAACCUCCAAUGCAUCCCACCACAUGAUGAUGCCUGAAGAGCCUUGGUUUUUUG

Variants of: B1
Test: polymerase ribozyme fitness, log enrichment relative to wild type (log ratio); higher = more active; in vitro selection for triplet polymerase activity
Outline: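 Genotype fitness is the logarithm of its enrichment divided by wild-type enrichment, using inverse-variance-weighted averages of replicates. That logarithm is base 2. Enrichment was measured by Illumina sequencing of input and output libraries from one triplicate in vitro selection round, with frozen incubation at −7 °C, on PCR-built, transcribed mutant libraries of each subunit of a heterodimeric triplet polymerase ribozyme, retaining genotypes with ≥10 input reads and ≥1 read per output.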

First: A6U C28G G45U C56G C64A G120C
Second: A6U U9C G60C
The “polymerase ribozyme fitness (log ratio)” value of the first is lower: -7.29 for the first, -0.604 for the second.

Compared with A6U A74G, A5U C56A C102A U116C is lower in “polymerase ribozyme fitness (log ratio)” value: -0.0819 for the first, -5.7 for the second.

Compared with A6U C72A C102A C123G, A6G C64U is lower in “polymerase ribozyme fitness (log ratio)” value: 0.361 for the first, 0.116 for the second.

Compared with A5U G52U U112G, A5U C56A is lower in “polymerase ribozyme fitness (log ratio)” value: -0.382 for the first, -0.829 for the second.

Going from A6U C86U C88A A121U to A6U G63U, the “polymerase ribozyme fitness (log ratio)” value falls from 0.522 to -1.06.

Compared with A6U G45U C101A, A6U U54C is higher in “polymerase ribozyme fitness (log ratio)” value: -2.89 for the first, 0.558 for the second.

Going from A5U G48U C56U G93A to A6C A50C G127A G128U, the “polymerase ribozyme fitness (log ratio)” value falls from -0.937 to -3.5.

First: U7A C53U C86U A90G G122A
Second: A6C G52C
The “polymerase ribozyme fitness (log ratio)” value of the first is lower: -1.97 for the first, -0.394 for the second.

Compared with A6G C115A, A6U U106G G113C is lower in “polymerase ribozyme fitness (log ratio)” value: 0.525 for the first, -3.9 for the second.

First: A6U G117A
Second: A6U C13A C40U C62A A95U
The “polymerase ribozyme fitness (log ratio)” value of the first is higher: -0.258 for the first, -3.6 for the second.

Compared with A6C C72G A108G C115U, A6C U9C A46C C62U C82U is higher in “polymerase ribozyme fitness (log ratio)” value: -4.82 for the first, -0.79 for the second.

First: A6C A41G C70U G117U
Second: A6U G48A
The “polymerase ribozyme fitness (log ratio)” value of the first is lower: -7.14 for the first, -0.413 for the second.

First: A6U G44U G52C G69A A121C
Second: A6U C28U C123U
The “polymerase ribozyme fitness (log ratio)” value of the first is lower: -4.22 for the first, -0.417 for the second.

Compared with A6U U9G A27U C34A G44U C64U, A6U C70U A105U U125A is higher in “polymerase ribozyme fitness (log ratio)” value: -6.87 for the first, -3.91 for the second.

Compared with A5U G19A G57U U78G G113U G135U, A6G C98U U125G is higher in “polymerase ribozyme fitness (log ratio)” value: -4.71 for the first, -3.71 for the second.

First: A5U G10A G17C
Second: A6G G36U C80U C88U G110C C124U
The “polymerase ribozyme fitness (log ratio)” value of the first is higher: -4.03 for the first, -5.65 for the second.

A6G G39A and A6G C11G A118U are within 0.2 log units of each other in “polymerase ribozyme fitness (log ratio)” value: 0.16 for the first, 0.0523 for the second.

Compared with A6G C11A U14A C28A G69U U78C, A6C A18C C49U C70U C82U is lower in “polymerase ribozyme fitness (log ratio)” value: -3.37 for the first, -5.19 for the second.

U7A A37G G52A C56G G120U and A6G G48U G63A are within 0.2 log units of each other in “polymerase ribozyme fitness (log ratio)” value: -0.68 for the first, -0.619 for the second.

Going from U7A C31U G60A to A5U G71C, the “polymerase ribozyme fitness (log ratio)” value rises from -4.77 to -2.73.

Going from A6U C115G to A6C U81C U87G, the “polymerase ribozyme fitness (log ratio)” value rises from -1.25 to -0.0503.

Compared with A6G G10U C56A G57A G58A G69U C86U, U7A C12G G17U A105G G120C is lower in “polymerase ribozyme fitness (log ratio)” value: -1.09 for the first, -4.05 for the second.

First: A6G G117A C124U
Second: U7A C70A G113C
The “polymerase ribozyme fitness (log ratio)” value of the first is higher: -0.162 for the first, -4.53 for the second.

First: A5U C22G A66U U112A U126G
Second: A5U C72G
The “polymerase ribozyme fitness (log ratio)” value of the first is lower: -3.51 for the first, -0.174 for the second.

Compared with A6U U106A, U7A C12A C20A G42U is lower in “polymerase ribozyme fitness (log ratio)” value: -0.188 for the first, -3.2 for the second.

First: A6U U59C A119G
Second: U7A C15A A41C C70U
The “polymerase ribozyme fitness (log ratio)” value of the first is higher: 0.571 for the first, -2.92 for the second.

A6U C72U U96C and A6U C72A A84U U132C are within 0.2 log units of each other in “polymerase ribozyme fitness (log ratio)” value: -0.187 for the first, -0.139 for the second.

Compared with A5U G71A C98U G127A G128U, A6G A18C U54C is higher in “polymerase ribozyme fitness (log ratio)” value: -5.31 for the first, -2.19 for the second.

First: A6U C62U U112G C115A U131C G135C
Second: U7A C8A C11G G47U G57U C62U C85A
The “polymerase ribozyme fitness (log ratio)” value of the first is higher: -1.02 for the first, -1.82 for the second.

Compared with A6C C104A, A6G C80U C115G is higher in “polymerase ribozyme fitness (log ratio)” value: -1.61 for the first, -1.33 for the second.

Compared with U7A C20U C73U G120A U129C U131G, A6U C80A U87A is lower in “polymerase ribozyme fitness (log ratio)” value: -0.869 for the first, -2.6 for the second.

Compared with A5U C53A C62A G110U U130C, A6G C11G G52U U59A G60C is higher in “polymerase ribozyme fitness (log ratio)” value: -4.41 for the first, -0.455 for the second.

Going from U7A A41U C85U to A6U C40U A84G C89U G113U G122C, the “polymerase ribozyme fitness (log ratio)” value falls from -1.81 to -5.19.

First: A5U G63U A75U
Second: A6C G45A
The “polymerase ribozyme fitness (log ratio)” value of the first is higher: -0.67 for the first, -2.73 for the second.

First: A6C C79A
Second: A6C A27G C49U C79A U81A
The “polymerase ribozyme fitness (log ratio)” value of the first is higher: -0.901 for the first, -6.28 for the second.

Going from A5U U9A G48U C49G C101A to A5U G52C G61C U129A, the “polymerase ribozyme fitness (log ratio)” value falls from -1.73 to -2.2.

Compared with A6U G19U, U7A C11A A26U G63A U112A G127U is lower in “polymerase ribozyme fitness (log ratio)” value: -2.29 for the first, -3.63 for the second.

Compared with A6C G42C, A6C A83C C97U G110A is lower in “polymerase ribozyme fitness (log ratio)” value: -1.69 for the first, -1.92 for the second.

First: U7A C12G A18C G45A G48A C49A A74G C85U
Second: A6U G45U G52C G69C C72U G122A
The “polymerase ribozyme fitness (log ratio)” value of the first is lower: -5.35 for the first, -3.45 for the second.

Compared with A6U C97G, A6U G42U is higher in “polymerase ribozyme fitness (log ratio)” value: -3.24 for the first, -1.17 for the second.

Going from A6U G42U C49U C101U G110U C123G to A6C G44U C64U U96A C104A, the “polymerase ribozyme fitness (log ratio)” value rises from -6.14 to -3.82.

With U7A C12U A46U G58A C70A the “polymerase ribozyme fitness (log ratio)” value was -1.97.
